In paper PMC8847413:

Experiments:
[1] = biological target: prefusion-stabilized trimeric S protein (S ectodomain) of SARS-CoV-2 Delta (B.1.617.2) variant (SARS-CoV-2) (UniProt P0DTC2); test: BLI
[2] = biological target: prefusion-stabilized S protein (S trimer) of SARS-CoV-2 G614 variant (SARS-CoV-2) (UniProt P0DTC2); test: BLI

Sequence of human ACE2 peptidase domain (PD) (Q9BYF1 17-615): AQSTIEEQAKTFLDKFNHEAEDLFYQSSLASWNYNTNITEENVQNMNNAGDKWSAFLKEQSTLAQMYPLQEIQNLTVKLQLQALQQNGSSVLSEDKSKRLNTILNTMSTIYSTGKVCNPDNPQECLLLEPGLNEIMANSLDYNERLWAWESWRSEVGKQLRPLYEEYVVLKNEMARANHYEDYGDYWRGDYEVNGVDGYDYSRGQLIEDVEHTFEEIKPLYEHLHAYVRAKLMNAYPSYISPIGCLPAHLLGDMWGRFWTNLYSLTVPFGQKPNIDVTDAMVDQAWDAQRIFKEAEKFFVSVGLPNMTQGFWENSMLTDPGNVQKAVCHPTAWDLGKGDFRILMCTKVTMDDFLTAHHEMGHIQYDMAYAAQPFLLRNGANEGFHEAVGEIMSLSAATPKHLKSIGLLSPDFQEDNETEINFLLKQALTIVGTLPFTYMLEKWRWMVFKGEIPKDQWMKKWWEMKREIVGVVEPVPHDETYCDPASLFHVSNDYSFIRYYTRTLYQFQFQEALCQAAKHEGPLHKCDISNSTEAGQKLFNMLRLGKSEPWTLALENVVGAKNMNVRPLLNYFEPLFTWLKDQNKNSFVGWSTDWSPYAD

Q: What does the source list for “human ACE2 peptidase domain (PD) (from UniProt Q9BYF1) (domain or fragment)”?
A: Kd [1]: 41 nM; Kd [2]: 87 nM
